B1: human PNPASE (polynucleotide phosphorylase) expressed in yeast mitochondria (enzyme, UniProt Q8TCS8 46-783, looked up)
chain: AVAVDLGNRKLEISSGKLARFADGSAVVQSGDTAVMVTAVSKTKPSPSQFMPLVVDYRQKAAAAGRIPTNYLRREIGTSDKEILTSRIIDRSIRPLFPAGYFYDTQVLCNLLAVDGVNEPDVLAINGASVALSLSDIPWNGPVGAVRIGIIDGEYVVNPTRKEMSSSTLNLVVAGAPKSQIVMLEASAENILQQDFCHAIKVGVKYTQQIIQGIQQLVKETGVTKRTPQKLFTPSPEIVKYTHKLAMERLYAVFTDYEHDKVSRDEAVNKIRLDTEEQLKEKFPEADPYEIIESFNVVAKEVFRSIVLNEYKRCDGRDLTSLRNVSCEVDMFKTLHGSALFQRGQTQVLCTVTFDSLESGIKSDQVITAINGIKDKNFMLHYEFPPYATNEIGKVTGLNRRELGHGALAEKALYPVIPRDFPFTIRVTSEVLESNGSSSMASACGGSLALMDSGVPISSAVAGVAIGLVTKTDPEKGEIEDYRLLTDILGIEDYNGDMDFKIAGTNKGITALQADIKLPGIPIKIVMEAIQQASVAKKEILQIMNKTISKPRASRKENGPVVETVQVPLSKRAKFVGPGGYNLKKLQAETGVTISQVDEETFSVFAPTPSAMHEARDFITEICKDDQEQQLEFGAVYTATITEIRDTGVMVKLYPNMTAVLLHNTQLDQRKIKHPTALGLEVGQEIQVKYFGRDPADGRMRLSRKVLQSPATTVVRTLNDRSSIVMGEPISQSSSNSQ
notes: Homo-oligomer of about 240 kDa on blue-native gels; also called hPNP; WT PNPASE
B2: human PNPASE double mutant R445E/R446E (enzyme, UniProt Q8TCS8 46-783, looked up)
chain: AVAVDLGNRKLEISSGKLARFADGSAVVQSGDTAVMVTAVSKTKPSPSQFMPLVVDYRQKAAAAGRIPTNYLRREIGTSDKEILTSRIIDRSIRPLFPAGYFYDTQVLCNLLAVDGVNEPDVLAINGASVALSLSDIPWNGPVGAVRIGIIDGEYVVNPTRKEMSSSTLNLVVAGAPKSQIVMLEASAENILQQDFCHAIKVGVKYTQQIIQGIQQLVKETGVTKRTPQKLFTPSPEIVKYTHKLAMERLYAVFTDYEHDKVSRDEAVNKIRLDTEEQLKEKFPEADPYEIIESFNVVAKEVFRSIVLNEYKRCDGRDLTSLRNVSCEVDMFKTLHGSALFQRGQTQVLCTVTFDSLESGIKSDQVITAINGIKDKNFMLHYEFPPYATNEIGKVTGLNEEELGHGALAEKALYPVIPRDFPFTIRVTSEVLESNGSSSMASACGGSLALMDSGVPISSAVAGVAIGLVTKTDPEKGEIEDYRLLTDILGIEDYNGDMDFKIAGTNKGITALQADIKLPGIPIKIVMEAIQQASVAKKEILQIMNKTISKPRASRKENGPVVETVQVPLSKRAKFVGPGGYNLKKLQAETGVTISQVDEETFSVFAPTPSAMHEARDFITEICKDDQEQQLEFGAVYTATITEIRDTGVMVKLYPNMTAVLLHNTQLDQRKIKHPTALGLEVGQEIQVKYFGRDPADGRMRLSRKVLQSPATTVVRTLNDRSSIVMGEPISQSSSNSQ
notes: Point mutants are based on Portnoy et al. (2008); The numbering scheme is not further defined
B3: human PNPASE mutant D135G (enzyme, UniProt Q8TCS8 46-783, looked up)
chain: AVAVDLGNRKLEISSGKLARFADGSAVVQSGDTAVMVTAVSKTKPSPSQFMPLVVDYRQKAAAAGRIPTNYLRREIGTSDKEILTSRIIGRSIRPLFPAGYFYDTQVLCNLLAVDGVNEPDVLAINGASVALSLSDIPWNGPVGAVRIGIIDGEYVVNPTRKEMSSSTLNLVVAGAPKSQIVMLEASAENILQQDFCHAIKVGVKYTQQIIQGIQQLVKETGVTKRTPQKLFTPSPEIVKYTHKLAMERLYAVFTDYEHDKVSRDEAVNKIRLDTEEQLKEKFPEADPYEIIESFNVVAKEVFRSIVLNEYKRCDGRDLTSLRNVSCEVDMFKTLHGSALFQRGQTQVLCTVTFDSLESGIKSDQVITAINGIKDKNFMLHYEFPPYATNEIGKVTGLNRRELGHGALAEKALYPVIPRDFPFTIRVTSEVLESNGSSSMASACGGSLALMDSGVPISSAVAGVAIGLVTKTDPEKGEIEDYRLLTDILGIEDYNGDMDFKIAGTNKGITALQADIKLPGIPIKIVMEAIQQASVAKKEILQIMNKTISKPRASRKENGPVVETVQVPLSKRAKFVGPGGYNLKKLQAETGVTISQVDEETFSVFAPTPSAMHEARDFITEICKDDQEQQLEFGAVYTATITEIRDTGVMVKLYPNMTAVLLHNTQLDQRKIKHPTALGLEVGQEIQVKYFGRDPADGRMRLSRKVLQSPATTVVRTLNDRSSIVMGEPISQSSSNSQ
notes: as for B2
B4: human PNPASE mutant S484A (enzyme, UniProt Q8TCS8 46-783, looked up)
chain: AVAVDLGNRKLEISSGKLARFADGSAVVQSGDTAVMVTAVSKTKPSPSQFMPLVVDYRQKAAAAGRIPTNYLRREIGTSDKEILTSRIIDRSIRPLFPAGYFYDTQVLCNLLAVDGVNEPDVLAINGASVALSLSDIPWNGPVGAVRIGIIDGEYVVNPTRKEMSSSTLNLVVAGAPKSQIVMLEASAENILQQDFCHAIKVGVKYTQQIIQGIQQLVKETGVTKRTPQKLFTPSPEIVKYTHKLAMERLYAVFTDYEHDKVSRDEAVNKIRLDTEEQLKEKFPEADPYEIIESFNVVAKEVFRSIVLNEYKRCDGRDLTSLRNVSCEVDMFKTLHGSALFQRGQTQVLCTVTFDSLESGIKSDQVITAINGIKDKNFMLHYEFPPYATNEIGKVTGLNRRELGHGALAEKALYPVIPRDFPFTIRVTSEVLESNGSSAMASACGGSLALMDSGVPISSAVAGVAIGLVTKTDPEKGEIEDYRLLTDILGIEDYNGDMDFKIAGTNKGITALQADIKLPGIPIKIVMEAIQQASVAKKEILQIMNKTISKPRASRKENGPVVETVQVPLSKRAKFVGPGGYNLKKLQAETGVTISQVDEETFSVFAPTPSAMHEARDFITEICKDDQEQQLEFGAVYTATITEIRDTGVMVKLYPNMTAVLLHNTQLDQRKIKHPTALGLEVGQEIQVKYFGRDPADGRMRLSRKVLQSPATTVVRTLNDRSSIVMGEPISQSSSNSQ
notes: as for B2
B5: human PNPASE mutant D544G (enzyme, UniProt Q8TCS8 46-783, looked up)
chain: AVAVDLGNRKLEISSGKLARFADGSAVVQSGDTAVMVTAVSKTKPSPSQFMPLVVDYRQKAAAAGRIPTNYLRREIGTSDKEILTSRIIDRSIRPLFPAGYFYDTQVLCNLLAVDGVNEPDVLAINGASVALSLSDIPWNGPVGAVRIGIIDGEYVVNPTRKEMSSSTLNLVVAGAPKSQIVMLEASAENILQQDFCHAIKVGVKYTQQIIQGIQQLVKETGVTKRTPQKLFTPSPEIVKYTHKLAMERLYAVFTDYEHDKVSRDEAVNKIRLDTEEQLKEKFPEADPYEIIESFNVVAKEVFRSIVLNEYKRCDGRDLTSLRNVSCEVDMFKTLHGSALFQRGQTQVLCTVTFDSLESGIKSDQVITAINGIKDKNFMLHYEFPPYATNEIGKVTGLNRRELGHGALAEKALYPVIPRDFPFTIRVTSEVLESNGSSSMASACGGSLALMDSGVPISSAVAGVAIGLVTKTDPEKGEIEDYRLLTDILGIEDYNGDMGFKIAGTNKGITALQADIKLPGIPIKIVMEAIQQASVAKKEILQIMNKTISKPRASRKENGPVVETVQVPLSKRAKFVGPGGYNLKKLQAETGVTISQVDEETFSVFAPTPSAMHEARDFITEICKDDQEQQLEFGAVYTATITEIRDTGVMVKLYPNMTAVLLHNTQLDQRKIKHPTALGLEVGQEIQVKYFGRDPADGRMRLSRKVLQSPATTVVRTLNDRSSIVMGEPISQSSSNSQ
notes: as for B2

How the values were obtained:
[1] = target: the molecule itself; test: blue-native gel, PNPASE immunoblot (self-assembly)
Protocol: Listed are the in vitro effects of mutations on 3′ polymerase and RNA degrading activities as reported by Portnoy et al. (2008) RNA 14: 297-309. […] Radiolabeled RNase P RNA was incubated with isolated yeast mitochondria expressing an empty vector or the listed PNPASE constructs. […] A PORIN immunoblot confirms the co-localization of PNPASE WT and mutants in yeast mitochondria. The assembly state of WT and point mutant PNPASE was determined by solubilization with 1% digitonin and separation on a 6-16% BN gel, followed by PNPASE immunoblot. FIG. 11B (upper) show gels of WT and S484A PNPASE purified from yeast mitochondria using immunoprecipitation. FIG. 11B (lower) show gels of WT or S484A mutant PNPASE was incubated with radiolabeled RNase P RNA for 10 min at 25° C. to assess degradation activity. The asterisk marks degradation products. FIG. 11 C (left) is a gel showing the stability of RNase P RNA imported into mitochondria.
The assembly state of PNPASE was also investigated. […] Soluble proteins were separated on a 6-16% BN gel and PNPASE was detected by immunoblot. […] The PNPASE-HisPC were solubilized with 1% digitonin (Dig) or 0.5% dodecylmaltoside (DDM) and the soluble proteins were separated on a 6-16% BN gel and detected by immunoblot.

[2] = target: the molecule itself; test: 1% digitonin, 6-16% blue-native gel, PNPASE immunoblot (self-assembly)
Protocol: Radiolabeled RNase P RNA was incubated with isolated yeast mitochondria expressing an empty vector or the listed PNPASE constructs. […] A PORIN immunoblot confirms the co-localization of PNPASE WT and mutants in yeast mitochondria. The assembly state of WT and point mutant PNPASE was determined by solubilization with 1% digitonin and separation on a 6-16% BN gel, followed by PNPASE immunoblot. FIG. 11B (upper) show gels of WT and S484A PNPASE purified from yeast mitochondria using immunoprecipitation. FIG. 11B (lower) show gels of WT or S484A mutant PNPASE was incubated with radiolabeled RNase P RNA for 10 min at 25° C. to assess degradation activity. The asterisk marks degradation products. FIG. 11 C (left) is a gel showing the stability of RNase P RNA imported into mitochondria.
To determine whether the RNA import or stabilization activity of PNPASE was separable from its RNA processing activities, RNase P RNA import was studied when different PNPASE mutants were expressed in yeast mitochondria (FIG. 11A). The point mutants generated and tested were based on prior studies (Portnoy et al. (2008) RNA 14: 297-309). Mutants D135G and S484A lacked poly-A polymerase and RNA degradation activities in vitro. […] Of the four mutants, PNPASE S484A and R445E/R446E supported the import or stabilization of RNase P RNA, whereas mutants D135G and D544G were defective in this function (FIG. 11A). Based on the prior studies of others, it was expected that mutant D135G would fail to form a trimeric complex from prior studies (Portnoy et al. (2008) RNA 14: 297-309).

| Protein | binding result [1] | binding result [2] |
| --- | --- | --- |
| B1 | binds | – |
| B2 | – | binds |
| B3 | binds | – |
| B4 | – | binds |
| B5 | – | binds |

Reference: patent publication US20120283317A1 (University of California, published 2012)
